B1: FELECPVKY (peptide)
peptide: FELECPVKY
B2: QEDELVKIRKY (peptide)
peptide: QEDELVKIRKY
B3: LEWQHPSSW (peptide)
peptide: LEWQHPSSW
B4: KELEATKQYL (peptide)
peptide: KELEATKQYL
B5: DEIFTNDRRW (peptide)
peptide: DEIFTNDRRW
B6: HELESENKKW (peptide)
peptide: HELESENKKW
B7: KEWEREKAVSL (peptide)
peptide: KEWEREKAVSL
B8: KQTEATMTF (peptide)
peptide: KQTEATMTF
B9: RRHPSFKRF (peptide)
peptide: RRHPSFKRF
B10: EEPKIDFRVY (peptide)
peptide: EEPKIDFRVY
B11: SEPQITVNF (peptide)
peptide: SEPQITVNF
B12: AEPPILYSEY (peptide)
peptide: AEPPILYSEY
B13: AECILSKRL (peptide)
peptide: AECILSKRL
B14: AENPLNIFY (peptide)
peptide: AENPLNIFY
B15: LENPHVQSV (peptide)
peptide: LENPHVQSV
B16: DEYLIPQQGFF (peptide)
peptide: DEYLIPQQGFF
B17: SETPTLQGL (peptide)
peptide: SETPTLQGL
B18: EEMLENVSL (peptide)
peptide: EEMLENVSL
B19: AEQEIMKKV (peptide)
peptide: AEQEIMKKV
B20: REYEYDLKW (peptide)
peptide: REYEYDLKW
B21: LEQASRIWSW (peptide)
peptide: LEQASRIWSW
B22: EEINQGGRKY (peptide)
peptide: EEINQGGRKY
B23: QEDEQLLLRF (peptide)
peptide: QEDEQLLLRF
B24: YEWEPFAEV (peptide)
peptide: YEWEPFAEV
B25: SDDLRNVTW (peptide)
peptide: SDDLRNVTW
B26: HELALRQTV (peptide)
peptide: HELALRQTV
B27: QELEQEVISL (peptide)
peptide: QELEQEVISL
B28: SEHLFGTSY (peptide)
peptide: SEHLFGTSY
B29: DEQLLLRF (peptide)
peptide: DEQLLLRF
B30: AETEEGIYW (peptide)
peptide: AETEEGIYW
B31: EMREERKF (peptide)
peptide: EMREERKF
B32: NEVKEIKGY (peptide)
peptide: NEVKEIKGY
B33: AETIFIVRL (peptide)
peptide: AETIFIVRL
B34: HENGVLTKF (peptide)
peptide: HENGVLTKF
B35: RELVHMINW (peptide)
peptide: RELVHMINW
B36: RELGFTEATGW (peptide)
peptide: RELGFTEATGW
B37: AEMKFYVVI (peptide)
peptide: AEMKFYVVI
B38: EEGRVYVY (peptide)
peptide: EEGRVYVY
B39: TEIMEKTTL (peptide)
peptide: TEIMEKTTL
B40: LEWQNSSSM (peptide)
peptide: LEWQNSSSM
B41: GEDAHLTQY (peptide)
peptide: GEDAHLTQY
B42: AEYQAAILHL (peptide)
peptide: AEYQAAILHL
B43: KEVASNSEL (peptide)
peptide: KEVASNSEL
B44: AERIMFSDL (peptide)
peptide: AERIMFSDL
B45: SEQHSLPVF (peptide)
peptide: SEQHSLPVF
B46: MESAKETRY (peptide)
peptide: MESAKETRY
B47: SETSTGTSV (peptide)
peptide: SETSTGTSV
B48: SEGTLPYSY (peptide)
peptide: SEGTLPYSY
B49: SETAVVNVTY (peptide)
peptide: SETAVVNVTY
B50: RLWPEPENW (peptide)
peptide: RLWPEPENW
B51: EEIENLQAQF (peptide)
peptide: EEIENLQAQF
B52: EEWEWIQKL (peptide)
peptide: EEWEWIQKL
B53: IEYENQKRL (peptide)
peptide: IEYENQKRL
B54: SEVLLTSISTF (peptide)
peptide: SEVLLTSISTF
B55: YEQLLKVVTW (peptide)
peptide: YEQLLKVVTW
B56: VEVIPEGAML (peptide)
peptide: VEVIPEGAML
B57: SEADWLRFW (peptide)
peptide: SEADWLRFW
B58: AEVQIARKL (peptide)
peptide: AEVQIARKL
B59: QELSSIRQF (peptide)
peptide: QELSSIRQF
B60: TEFQQIINL (peptide)
peptide: TEFQQIINL
B61: DEIRVFGY (peptide)
peptide: DEIRVFGY
B62: AEKNRRDAETW (peptide)
peptide: AEKNRRDAETW
B63: EGEDAHLTQY (peptide)
peptide: EGEDAHLTQY
B64: MEQQSQEY (peptide)
peptide: MEQQSQEY
B65: SEFDLEQVW (peptide)
peptide: SEFDLEQVW
B66: SESSSFLKV (peptide)
peptide: SESSSFLKV
B67: QEVNISLHY (peptide)
peptide: QEVNISLHY
B68: RELLDFSSW (peptide)
peptide: RELLDFSSW
B69: GELAPSHGL (peptide)
peptide: GELAPSHGL
B70: REESDWHYL (peptide)
peptide: REESDWHYL
B71: SENKKWVEF (peptide)
peptide: SENKKWVEF
B72: REKDLPNYNW (peptide)
peptide: REKDLPNYNW
B73: AENPLNIFYI (peptide)
peptide: AENPLNIFYI

The binders below were run against T1, HLA-B*44:05 (human) (assay: UV peptide exchange, anti-b2m ELISA).
T1 construct: also called peptide-receptive MHC class I molecule
Outline: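 Peptide-receptive HLA-B*44:05 monomers after UV-induced exchange were diluted 100-fold and captured on streptavidin-coated plates for 1 h at 37 °C. Bound complexes were detected with 2 µg/ml HRP-anti-β2m (1 h, 37 °C) and TMB, read at 450 nm. β2m signal reflects peptide-stabilized complex yield.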
Work on B1 yielded a peptide exchange yield of 50 to 75%.
Binder B2 has a peptide exchange yield of 50 to 75%.
With B3 the peptide exchange yield was greater than 75%.
In the case of B4, the peptide exchange yield is reported as 50 to 75%.
B5 showed a peptide exchange yield of 20 to 50%.
Binder B6 has a peptide exchange yield of 50 to 75%.
B7 was tested, and the peptide exchange yield was 50 to 75%.
Binder B8 has a peptide exchange yield of 20 to 50%.
B9 was tested, and the peptide exchange yield was 10 to 20%.
B10 showed a peptide exchange yield of 50 to 75%.
B11 showed a peptide exchange yield of 50 to 75%.
In the case of B12, the peptide exchange yield is reported as 20 to 50%.
In the case of B13, the peptide exchange yield is reported as 50 to 75%.
For B14, the peptide exchange yield was greater than 75%.
In the case of B15, the peptide exchange yield is reported as 50 to 75%.
Work on B16 yielded a peptide exchange yield of 20 to 50%.
B17 was tested, and the peptide exchange yield was 50 to 75%.
For B18, the peptide exchange yield was 50 to 75%.
B19 was tested, and the peptide exchange yield was greater than 75%.
Binder B20 has a peptide exchange yield greater than 75%.
In the case of B21, the peptide exchange yield is reported as greater than 75%.
For B22, the peptide exchange yield was 50 to 75%.
With B23 the peptide exchange yield was 50 to 75%.
With B24 the peptide exchange yield was 10 to 20%.
B25 showed a peptide exchange yield greater than 75%.
Binder B26 has a peptide exchange yield greater than 75%.
B27 showed a peptide exchange yield of 50 to 75%.
Work on B28 yielded a peptide exchange yield of 50 to 75%.
For B29, the peptide exchange yield was 20 to 50%.
B30 showed a peptide exchange yield greater than 75%.
Binder B31 has a peptide exchange yield of 20 to 50%.
B32 showed a peptide exchange yield of 50 to 75%.
B33 showed a peptide exchange yield of 20 to 50%.
B34 gave a peptide exchange yield of 20 to 50%.
B35 gave a peptide exchange yield greater than 75%.
B36 showed a peptide exchange yield greater than 75%.
Binder B37 has a peptide exchange yield of 50 to 75%.
B38 gave a peptide exchange yield of 20 to 50%.
B39 showed a peptide exchange yield of 50 to 75%.
B40 gave a peptide exchange yield of 50 to 75%.
B41 gave a peptide exchange yield of 20 to 50%.
For B42, the peptide exchange yield was 50 to 75%.
B43 showed a peptide exchange yield of 50 to 75%.
B44 showed a peptide exchange yield greater than 75%.
B45 showed a peptide exchange yield of 50 to 75%.
Work on B46 yielded a peptide exchange yield of 50 to 75%.
With B47 the peptide exchange yield was 20 to 50%.
Work on B48 yielded a peptide exchange yield of 20 to 50%.
B49 showed a peptide exchange yield greater than 75%.
B50 showed a peptide exchange yield of 20 to 50%.
Binder B51 has a peptide exchange yield of 20 to 50%.
Work on B52 yielded a peptide exchange yield greater than 75%.
With B53 the peptide exchange yield was 20 to 50%.
Work on B54 yielded a peptide exchange yield greater than 75%.
With B55 the peptide exchange yield was greater than 75%.
With B56 the peptide exchange yield was 50 to 75%.
With B57 the peptide exchange yield was greater than 75%.
B58 was tested, and the peptide exchange yield was 50 to 75%.
For B59, the peptide exchange yield was 50 to 75%.
B60 was tested, and the peptide exchange yield was greater than 75%.
B61 gave a peptide exchange yield of 20 to 50%.
B62 gave a peptide exchange yield greater than 75%.
B63 was tested, and the peptide exchange yield was 20 to 50%.
B64 was tested, and the peptide exchange yield was 50 to 75%.
B65 gave a peptide exchange yield greater than 75%.
With B66 the peptide exchange yield was 50 to 75%.
Work on B67 yielded a peptide exchange yield greater than 75%.
B68 showed a peptide exchange yield greater than 75%.
With B69 the peptide exchange yield was 50 to 75%.
B70 showed a peptide exchange yield of 50 to 75%.
For B71, the peptide exchange yield was 20 to 50%.
B72 showed a peptide exchange yield greater than 75%.
B73 gave a peptide exchange yield of 50 to 75%.

— patent publication US20200087363A1 (IMMATICS BIOTECHNOLOGIES, published 2020)
